In data set [1] the target is T1, GST-TARDBP (TDP-43) (human, UniProt Q13148 1-414). The data set can be described thus: EMSA. To be noted: protein: recombinant; tags: N-terminal GST (pGEX-4T-1); label: 3' biotin; single strand. Background: In EMSA bound probe runs differently from free probe, usually more slowly.
Data set [2] concerns the target T1, GST-TARDBP (TDP-43). The data set can be described thus: EMSA; 2 ug protein. The settings on record: protein: recombinant; tags: N-terminal GST (pGEX-4T-1); label: 3' biotin; single strand.
Data set [3] has as its target T1, GST-TARDBP (TDP-43). The data set is described as follows: EMSA; dose dependent; supershifted by anti-TARDBP (Fig. 6d). To be noted: protein: recombinant; tags: N-terminal GST (pGEX-4T-1); label: 3' biotin; single strand.
Data set [4] concerns the target T1, GST-TARDBP (TDP-43). The data set can be described thus: EMSA; 2 ug protein; binding unaffected. The settings on record: protein: recombinant; tags: N-terminal GST (pGEX-4T-1); label: 3' biotin; single strand.
Data set [5] concerns the target T1, GST-TARDBP (TDP-43). The data set is described as follows: competition; 0-200 fold unlabeled competitor. The settings on record: protein: recombinant; tags: N-terminal GST (pGEX-4T-1); single strand.

T1 sequence (Q13148 whole entry): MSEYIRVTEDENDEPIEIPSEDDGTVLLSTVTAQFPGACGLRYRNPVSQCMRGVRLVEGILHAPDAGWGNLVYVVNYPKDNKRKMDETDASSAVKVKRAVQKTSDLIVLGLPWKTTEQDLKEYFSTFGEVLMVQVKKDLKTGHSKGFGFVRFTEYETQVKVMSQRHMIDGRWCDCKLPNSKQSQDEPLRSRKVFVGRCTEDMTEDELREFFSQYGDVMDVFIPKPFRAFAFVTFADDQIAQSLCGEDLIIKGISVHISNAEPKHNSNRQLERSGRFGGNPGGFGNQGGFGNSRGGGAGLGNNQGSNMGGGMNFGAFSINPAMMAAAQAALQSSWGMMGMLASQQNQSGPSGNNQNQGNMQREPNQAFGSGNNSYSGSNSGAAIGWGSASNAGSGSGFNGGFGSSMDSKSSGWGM

For the molecule AAAGTTGCATGGTGCTGGTGAACA (ssDNA) [fragment s4], the binding result with GST-TARDBP (TDP-43) [1] is listed as “no binding”.

As to CTGGTGAACAGACCAATTTATGCCTACAGCCTCCTAGTACAAAGAC (ssDNA) [AS probe 2 (adjacent)], the binding result with GST-TARDBP (TDP-43) [2] was “no binding”.

Turning to GGTGAAAAAGTTGCATGGTGCTGGTGAA (ssDNA) [fragment s2], in the data set with GST-TARDBP (TDP-43) [1], the binding result is “no binding”.

On to ATGAACATGAGATGATTAGGCAGAGGTG (ssDNA) [fragment s1], for which the binding result in the data set with GST-TARDBP (TDP-43) [1] is reported as “no binding”.

Take ATGAGATGATTAGGCAGAGGTGAAAAAGTTGCATGGTGCTGGTGAA (ssDNA) [AS probe 1 (WT, nt1804-1849)]: the binding result with GST-TARDBP (TDP-43) [3] is given as “binds”.

With ATGAGATGATTAGGCAGAGGTGAAAAAGTTGCATAGTACTCGTGAA (ssDNA) [AS Mutant 5], the binding result in the data set with GST-TARDBP (TDP-43) [2] is reported as “no binding”.

For ATGAGATGATTAGGCAGAGGTGCTAGCGTTGCATGGTGCTGGTGAA (ssDNA) [AS Mutant 3 (central A5 repeat mutated)], the binding result in the data set with GST-TARDBP (TDP-43) [4] is “binds”.

ATGAGATGATTAGGCAGAGGTGAAAAAGCTACATAGTACTGGTGAA (ssDNA) [AS Mutant 4]: the binding result with GST-TARDBP (TDP-43) [2] is reported as “no binding”.

Turning to ATCAGACGACTAGGCAGAGGTGAAAAAGTTGCATGGTGCTGGTGAA (ssDNA) [AS Mutant 1], the binding result with GST-TARDBP (TDP-43) [2] was “no binding”.

ATGAGATGATTAAGCATAGGCGAAAAAGTTGCATGGTGCTGGTGAA (ssDNA) [AS Mutant 2]: the binding result with GST-TARDBP (TDP-43) [2] is recorded as “no binding”.

Regarding ATGAGATGATTAGGCAGAGGTGAAAAAGTTGCATGGTGCTGGTGAA (ssDNA) [AS probe 1 unlabeled competitor], the binding result with GST-TARDBP (TDP-43) [5] is reported as “binds”.

As for CAGAGGTGAAAAAGTTGCATGGTG (ssDNA) [fragment s3], in the data set with GST-TARDBP (TDP-43) [1], the binding result is “no binding”.

The values are drawn from article PMC6560085.
